# Data from US20110265202A1.
# What was measured:
# [1] = molecular target: PrpS8 (Papaver rhoeas pollen S8 protein) on P. rhoeas pollen (Papaver rhoeas); assay: cell-based or functional assay
# [2] = molecular target: PrpS1-GFP fusion protein expressed in Arabidopsis thaliana pollen (line BG16) (Papaver rhoeas); assay: cell-based or functional assay
% germination of P. rhoeas S1S8 pollen with both PrsS1 and PrsS8 added (29.7% with S1 alone) [1] [%],"pollen germination of BG16 Arabidopsis pollen, in vitro SI assay [2] [% reduction]",Substance,"pollen viability (Evans blue) at t=2 h, BG16+PrsS1 against WT+S1 pollen [2] [times lower]","pollen viability (Evans blue) at t=4 h, BG16+PrsS1 against WT+S1 pollen [2] [times lower]","pollen viability (Evans blue) at t>8 h, BG16+PrsS1 against WT+S1 pollen [2] [times lower]"
1,,recombinant Papaver rhoeas pistil S8 protein (PrsS8) (ligand),,,
,50,recombinant Papaver rhoeas pistil S1 protein (PrsS1) (ligand),35,53,45
